Experimental data from US20210061879A1.

Assays:
[1] = biological target: HER2 on cancer cells (MCF7, SKBR3, BT474, SKOV3, OVCAR3) (human) (UniProt P04626); experiment: cell-based or functional assay
[2] = biological target: HER2 on cancer cells (MCF7, SKBR3, BT474, SKOV3, OVCAR3) (human) (UniProt P04626); experiment: flow cytometry on OVCAR3 cells; retelling of FIG. 16 with a different last digit (1436 there)
[3] = biological target: HER2 on cancer cells (MCF7, SKBR3, BT474, SKOV3, OVCAR3) (human) (UniProt P04626); experiment: flow cytometry, 100 nM memAb trastuzumab on MCF7 cells, secondary anti-kappa-647 (secondary alone: 338)
[4] = biological target: HER2 on cancer cells (MCF7, SKBR3, BT474, SKOV3, OVCAR3) (human) (UniProt P04626); experiment: flow cytometry, 100 nM memAb trastuzumab on BT474 cells, secondary anti-kappa-647 (secondary alone: 392)
[5] = biological target: HER2 on cancer cells (MCF7, SKBR3, BT474, SKOV3, OVCAR3) (human) (UniProt P04626); experiment: flow cytometry, 100 nM memAb trastuzumab on SKBR3 cells, secondary anti-kappa-647 (secondary alone: 330)
[6] = biological target: HER2 on cancer cells (MCF7, SKBR3, BT474, SKOV3, OVCAR3) (human) (UniProt P04626); experiment: flow cytometry, 100 nM memAb trastuzumab on SKOV3 cells, secondary anti-kappa-647 (secondary alone: 370)
[7] = biological target: HER2 on cancer cells (MCF7, SKBR3, BT474, SKOV3, OVCAR3) (human) (UniProt P04626); experiment: flow cytometry, 100 nM memAb trastuzumab on OVCAR3 cells, secondary anti-kappa-647 (secondary alone: 307)

EC50 of Jurkat-NFAT-Luc meditope-CAR cell activation (luminescence), co-culture with BT474 [1]: 0.26 nM
EC50 of Jurkat-NFAT-Luc meditope-CAR cell activation (luminescence), co-culture with MCF7 [1]: 0.42 nM
EC50 of Jurkat-NFAT-Luc meditope-CAR cell activation (luminescence), co-culture with SKBR3 [1]: 0.83 nM
EC50 of Jurkat-NFAT-Luc meditope-CAR cell activation (luminescence), co-culture with SKOV3 [1]: 0.35 nM
MFI [2]: 1440
median fluorescence intensity (MFI) [3]: 985
median fluorescence intensity (MFI) [4]: 31700
median fluorescence intensity (MFI) [5]: 34400
median fluorescence intensity (MFI) [6]: 43200
median fluorescence intensity (MFI) [7]: 1440
Substance: meditope-enabled I83E trastuzumab IgG (antibody)
IC50 of cancer cell viability, BT474 co-incubated with memAb trastuzumab and FabRack T cells, 3 days [1]: 0.33 nM
IC50 of cancer cell viability, MCF7 co-incubated with memAb trastuzumab and FabRack T cells, 3 days [1]: 0.069 nM
IC50 of cancer cell viability, SKBR3 co-incubated with memAb trastuzumab and FabRack T cells, 3 days [1]: 0.11 nM
IC50 of cancer cell viability, SKOV3 co-incubated with memAb trastuzumab and FabRack T cells, 3 days [1]: 0.046 nM
